# Assay: yeast display, Sf9 membrane polyspecificity reagent, FACS + sequencing; frameworks hold sequencing errors
# Summary of the method: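 A nanobody's polyreactivity label depends on the gate it was sorted from. Yeast display cells were stained with 10% biotinylated, detergent-solubilized Sf9 membrane reagent for 1 hour at 4 °C, enriched on streptavidin microbeads and sorted by FACS. The low and high (top ~1%) gates were set on anti-HA fluorescence for expression and streptavidin fluorescence for reagent binding.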
row,Sequence,polyreactivity (PSR sort gate)
1,QVQLVESGGGLVQAGGSLRLSCAASGSTFGYYAMGWSRQAPGKERELVAVITYSGGSTYYADSVKGRFTISRDNAKNTVYLQMNSLKPEDTAVYYCAAVIGVWYYYTYDYWGQGTQVTVSS,low polyreactivity
2,QVQLVESGGGLVQAGGSLRLSCAASGSIFYHYAMGWYRQAPGKERELVAAITITGGSTYYADSVKGRFTISRDNAKNTVYLQMNSLKPEDTAVYYCARKWYVHYNYWGQGTQVTVSS,high polyreactivity
3,QVQLVESGGGLVQAGGSLRLSCAASGLIFYDNMGWYRQAPGKERELVAAISSSGGSTSYADSVKGRFTISRDNAKNTVYLQMNSLKPEDTAVYDSAADSYPAYLGFVGFDYWGQGTQVTVSS,low polyreactivity
4,QVQLVESGGGLVQAGGSLRLSCAASGRTIPAYTMGWYRQAPGKERELVAAINWSGGSTYYADSVKARFTISRDNAKNCVYLQMISLNPEDTAVYYCARTSRYYGFRSYGTLDYWGQGTQVTVSS,high polyreactivity
5,QVQLVESGGGLVQAGGSLRLTCAASGRIFSGYAMGWYRQEPGKEREFVASISTSGARTYYADSVKGRFTISRDNAKNTVYLQMNRLKPEDTAVYYCAKVIRWISYRGWYDYWGQGTQVTVSS,high polyreactivity
6,QVQLVESGGGLVHAGGSLRLSCAASGSIFEGYAMGWSRQAPGKERELVAAISRSGGSTYYADSVKGRFTISRDNAKNSVYLQINRLTPEATAVYYCAARKAIDYQGRHDHWGQGTQVTVSS,low polyreactivity
7,QVQLVESGGGLVQAGGSLRLSCAASGRTFDGNAMGWYRQAPGKERELVAAISKRGGTTYYADSVKGRFTISRDNAKNTVYLQMNSLKPEDTAVYYCAAPYNTYSYSEGEYWGQGTQVTVSS,low polyreactivity
8,QVQLVESGGGLVQAGGSLRLSCAASGSIFGIYVMGWYRQAPGKERELVAGISTRGGSTYYADSVKGRFTISRDNAKNTVYLQMNSLKPEDTAGYYCAAVPASYRDPMYYWGQGTQVTVSS,low polyreactivity
9,QVQLVESGGGLVQAGGSLRLSCAASGSIYGYYAMGWSRQAPGKERELVAAISWSDGSTYYADSVKGRFTISRDNAKNTVYLQMNSLKPEDTAVYYCAARFTPYITSDDGHYDYWGQGTQVTVSS,low polyreactivity
10,QVHLVESGGGLVQAGGSLCLSCAASGSIFINAMGWYRQAPGKERELVATIRWRGGTTYYADSVKGRFTISRDNAKNTVYLQMNSLKPEDTAVYYCAARVHSVHYPYYYWGQGTQVTVSS,low polyreactivity
11,QVQLVESGGGLVQAGGSLRLICAASGFIFSSHAMGWYRQAPGKERELVAAISRSGGRTYYADSVKGRFTITRDNAKNTVYLQMNSLKPEDTAVYYCAAKRWWQYYWGQGTQVTVSS,high polyreactivity
12,QVQLVESGGGLVQAGGSLRLSCAASGYTFGSYAMGWYRQAPGTERELVAAIRGSGGSTYYADSVKGRFTISRDNAKNTVYLQLNSLKPEDTAVYYGATSVRRGGRQLYNYWGQGTQVTVSS,high polyreactivity
13,QVQLVESGGGLDQAGGSLRLSCAASGFTSYKYSRGWYRQAPGKETELVAASTGSGSRTFYADSVKGRFTISRDNAKNSFYLLMNSLKPEDTADYYCAARRPLYPERDYWGHGTQVTVSS,high polyreactivity
14,QVQLVESGGGLVQAGGSLRLSCAASGRTFSGNAMGWYRQAPGKERELVAGISTSGGSTYYADSVKGRFTISRDNANNTVYVQMNSLKPEDTAVYYCAADRPGSFTTMDYWGQGSQVTVSS,high polyreactivity
15,QVQLVESGGGLVQAGGSLRLSCAASGGTLAYYAMGWYRQAPGKERELVAAITRSGGSTYYADSVKGRFTISRDNAKNTVYLQMNSLKPEDTAVYYCAALLAYCKNRWHIEYDYWGQGTQVTVSS,low polyreactivity
16,QVQLVESGGGLVQAGGSLRLSCAASGSTFVENAMGWYRQAPGKEREVVAAISSSGDSTFYADSVKGRFTISRDNAKNTVYLQMKSLKPEDTAVYYCAADRRINYDGLDMDYWGQGTQVTVSS,low polyreactivity
17,QVQLVESGGGLVQAGGSLLISCAASGRTLDFNVMGWYRQAPGKERELVAAITWSGGSTYYADSVKGRFTISRDNAKNTVYLQMNSLKPEDTAVYYCAKDRWYWARRYDYWGQGTQVTVSS,high polyreactivity
18,QVQLVESGGGLVQAGGSLRLSCAASGLTFDWYALGWYRQAPGKERELVAAISWNGVSTDYADSVKGRFTISRDNAKNTVYLQMNSLKPEDTAVYYCNAKGQRNKRWRGYWGQGTQVTVSS,high polyreactivity
19,QVQLVESGGGLVQAGGSLRLSCAASGFTIGRYDMGWYRQAPGKERELVAAISWSGGSTYYADSVKGRFTISRDNAKNTVYLQMNSLKPEDTAVYYCNAAYYGYENLSKRGYWGQGTQVTVSS,high polyreactivity
20,QVQLVESGGGLVQAGGSLRLSCAASGRTFRNYAMGWYRQAPGKERELVAAIRSGVRTYYADSVKGRFTISRDNAKNTVYLQMNSLKPEDTAVYYCAVATGLLYKSHGYWGQGTQVTVSS,low polyreactivity
21,QFQLVESGGGLVQAGGSLRLSCAASGSIFKYYTMGRYRQAHGKEMELVAYISSGGSTKYADSVKGRFTISRDNAKNTVYLQMNSLKPEDTAVYYCAKRYYYFYPDYDYWGQGTQVTVSS,high polyreactivity
22,QVQLVESGGGLVQAGGSLRLSCAATGSTFRYYAMGWYRQAPGKERELVAAISASGSSTYYADSVKGRFTISRHNAKNTVFLQMYSLKPEDTAVYYCATRQFYVRLGYYSWGQGTQVTVSS,high polyreactivity

row,Sequence,polyreactivity (PSR sort gate)
1,QVQLVESGGGLVQAGGSLRLSCAAYGNIFYVYVMGWYRQAPGKERELVASITSGASTYYADSVKGRFTISRDNAKNTVYLQMNSLKPEDTAVYYCAAEALGGAGDYSTLYIYDYWGQGTQVTVSS,low polyreactivity
2,QVQLVESGGGLVQAGGSLRLSCAASGSTFGYNAMGWYRQAPGKEREFVATIRYSGDRTYYADSVKGRFTISRDNAKNTVYLQMNSLKPEDTAVYYCAADLYYNSYGRYGRYYYWGQGTQVNVSS,high polyreactivity
3,QVQLVESGGGLVQAGGSLRLSCAASGSTFGDYAMGWYRQAPGKERELVAAITIGGITTYADSVKGRFTISRDNAKNTVYLQMNSLKPEDTAVYYCNADDYQYKTWYHLDYWGQGTQVTVSS,low polyreactivity
4,QVQLVESGGGLVQAGGSLRLSCAASGRTFYSNTMGWYRQAPGKEREFVAAIPSIVGSTYYADSVKGRFTISRDNAKNTVYLQMNSLKPEDTAVYYCATRYVVIEYDYWGQGTQVTVSS,low polyreactivity
5,QVQLVESGGGLVQAGGSLRLSCAASGSTFGANAMGWYRQARGKEREFVAAISRSGVRTYYADSVKGRFTISRDNAKNTVYLQMNSLKPEDTAVYYCAADGYWWTYTRYDYCGQGTQVTVSS,low polyreactivity
6,QVQLVESGGGLVQAGGSLRISCAASGSTFNINAMGWYRQAPGKERELVAAIRYRGGSTNYADSVKGRFTISRDNAKNNVYLQMNSLKPEDTAVYYCAATYSRHTNGYSKYCYWGQGTQVTVSS,high polyreactivity
7,QVQLVESGGGLVQAGGSLRLSCAASGRTFYWYAMGWYRQAPGKERELVAAIRWSTGSTYYADSVKGRFTISRDNAKNTVYLQMNSLKPEDTAVYYCAATRPSWRYNYWGQGTQVTVSS,high polyreactivity
8,QVQLVESGGGLVQAGGSLRLSCAASGSTFSRNAMGWYRQAPGKEREFVAAISTSGDSTYYADSVKGRFTISRDNAKNTVYLQMNSLKPEDTAVYYCADDGFWIAYQEGDYWGQGTQVTVSS,low polyreactivity
9,QVQLQESGGGLVQAGGSLRLSCAASGSISRLDYMGWYRQPSGKERELVAAIDNGSTTYYADSVKGRLTISRDNAKYTVYLQMNSLKPEDTAVYFCAAVRGRGGTHAYWGQGTQVTVSG,low polyreactivity
10,QVQLVESGGGLVQAGGSLRLSCASSGFTFYYSMGLYRQAPVKERELVASINYSGGSTYYADSVKGRFTISRDNGKNTLYLQMNSLKAEETGVYYCAVDVRPRGLMYYWGQGTQVTVSS,low polyreactivity
11,QVQLVESGGGLVQAGGSLRLSCPASGSIFGWYPMAWYRQAPGKERELVAAITFYSVNTYYQDSVKGRFTISRDNAKNNVYLQMNSLKPEDTAVYYCSARGATVVSRGKLYYWGQGTQVSVSS,low polyreactivity
12,QVQLVETGGGLVQAGGSLRLSCAASGCTFKYNTMGWYRQAPGKERELVAAITSGGGSTNYADSVKGRFTISRDNAKNTVYLQMNSLKPEDTAVYYCAAYRRNTYWGQVTQVTVSS,high polyreactivity
13,QVQLHESGGGLVQAGGSLRLSCAASGTISYAGPMGWYRQAPGKEREFVAGIGVGSNTNYADSVKGRYTIIRDNAKNTVYLQMNSLKPVDTAVYYCAVGGYAPLGRPYWGQGTQVTVSS,low polyreactivity
14,QVQLVESGGGLVQAGGSLRLSCAASGRIFSYYAMGWYRQAPGKERELVAAINWSGGSTYYADSVKGRFTISRDNAKNTVYLQMNSLKPEDTAVYYCAVDWTSAYGTYYYTPYDSWGQGTQVTVSS,low polyreactivity
15,QVHLVESGGGLVQAGGSLRLSCAASGRIFGYYAMGWYRQAPGKERELVAAISYSTGGTSTYADSVKGRFTISRDNAKNTVYLQMNSLKPEDTAVYYCAVRRQYRRAYSFSQSRYDYWGQGTQVTVSS,high polyreactivity
16,QVQLVESRGGLVQAGGSLRLSCAASGRLFYSYAMGWNRQEPGKEREFVAAISRSGARTYYADSVKGRFTISRDNAKNTVYLQMNSLKPEDTAVYYCAADDFSTVEYDYWGQGTQVTVSS,low polyreactivity
17,QVQLVESGGGLVQAGGSLRLSCAASGSTFTSYTMGWYRQAPGKERELVAAISRGGGRTYYADSVKARFTISRDNAKNTVYLQMYRLNPEDTAVYYCNKVLRGDRAGPGYDHWGLGTQVTVSS,high polyreactivity
18,QVQLVESGGGLVQAGGSLRLSCAASGRTFGKNAMGWYRQAPGKERELVAAISFSGGRTYYADSVKGRFTISRDNANNTVYLQMNSLKPEDTAVYYCAARGSRRGTWYDYWGQGTQVTVSS,high polyreactivity
19,QVQLVESGGGLVQAGGSLRLSCAASGFTFSYYAMGGYRQAPGKERELVAGIDYSGGSTYYADSVKGRFTISRDNAKNTVYLQMNSQKPEDTAVFYCNAVYARKYYYSHGYDYWGQGTQVTVSS,high polyreactivity
20,QVQLVESGGGLVQAGGSLRLSCAASGITFLPYAMGWYRQAPGKERELVAAITRGGGSTYADSVKGRFTISRDNAKNSVYFQMISLKPEDTAVYYCAKLYGRGSWYEDYDYWGQGTQVTVSS,low polyreactivity
21,QVQLVESGGGLVQAGGSLRLSCAASGSIFSYNAMGWYRQAPGKERELVAAISSGDYTYYADSVKGRFTISRDNAKNTVYLQMNSLKPEDTAVYYCAAPYVYSRGLSGDYYWGQGTQVTVSS,high polyreactivity
